Km data for 1 protein are collected here from publication PMC9606859, “Chemical Synthesis of Trans 8-Methyl-6-Nonenoyl-CoA and Functional Expression Unravel Capsaicin Synthase Activity Encoded by the Pun1 Locus” (Molecules, 2022).

Substrate in this data set: CC(C)/C=C/CCCCC(=O)SCCNC(=O)CCNC(=O)[C@H](O)C(C)(C)COP(=O)(O)OP(=O)(O)OC[C@H]1O[C@@H](n2cnc3c(N)ncnc32)[C@H](O)[C@@H]1OP(=O)(O)O
The data set is described as follows: HPLC/MS capsaicin formation. The following applies: co-substrate vanilloylamine (saturating per Figure S3), 50 mM TRIS/HCl pH 7.5, 150 mM NaCl, 10% glycerol, 1 mM TCEP, partly purified enzyme, single measurement, three technical replicates. In kind it is biochemical, Capsicum chinense.

B1: recombinant capsaicin synthase (AT3, Pun1) (Capsicum chinense) (protein)
chain: MAFALPSSLVSVCDKSFIKPSSLTPSTLRFHKLSFIDQSLSNMYIPCAFFYPKVQQRLEDSKNSDELSHIAHLLQTSLSQTLVSYYPYAGKLKDNATVDCNDMGAEFLSVRIKCSMSEILDHPHASLAESIVLPKDLPWANNCEGGNLLVVQVSKFDCGGIAISVCFSHKIGDGCSLLNFLNDWSSVTRDHTTTTLVPSPRFVGDSVFSTKTYGSLTTPQILSDLNECVQKRLIFPTDKLDALRAKVAEESGVKNPTRAEVVSALLFKCATKASSSMLPSKLVHFLNIRTMIKPRLPRNTIGNLSSIFSIEATNMQDMELPTLVRNLRKEVEVAYKKDQVEQNELILEVVESMREGKLPFENMDGYENVYTCSNLCKYPYYTVDFGWGRPERVCLGNGPSKNAFFLKDYKAGQGVEARVMLHKQQMSEFERNEELLEFIA
notes: full length, codon-optimized 1332 bp NdeI/XhoI fragment in pET-16b, His-tag (2 kDa) kept; E. coli SoluBL21; partly purified (Ni-NTA, SEC); monomer
As usually defined, the Km is the substrate concentration at which the rate is half of its maximum. As for B1, the Km worked out at 480 ± 240 µM.
